Side chains are listed from the residue outwards. Ends that are not written are not given here. AFM tip = not defined here
Tests used:
Reck-CK-Fc [1] = target: T1, Reck-CK-Fc; test: isothermal titration calorimetry with Reck-CK-Fc, 25 °C
T1 chain: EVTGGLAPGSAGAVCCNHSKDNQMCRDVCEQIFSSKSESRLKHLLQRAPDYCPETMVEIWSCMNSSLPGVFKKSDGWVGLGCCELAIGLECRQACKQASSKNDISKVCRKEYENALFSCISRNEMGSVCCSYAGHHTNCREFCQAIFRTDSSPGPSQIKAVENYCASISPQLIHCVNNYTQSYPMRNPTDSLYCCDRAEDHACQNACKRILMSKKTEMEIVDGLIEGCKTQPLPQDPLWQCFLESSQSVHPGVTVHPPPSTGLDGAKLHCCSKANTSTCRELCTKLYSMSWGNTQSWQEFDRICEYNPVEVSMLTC

HA-Reck = target: T2, HA-Reck; test: proximity ligation assay (anti-V5/anti-HA), with against without co-expressed Gpr124
T2 construct: whole, on cells; Co-expressed with V5-tagged Wnt ligands in GPR124-/-;RECK-/- HEK293 cells for PLA
T2 sequence (O95980 23-942, species assumed, looked up): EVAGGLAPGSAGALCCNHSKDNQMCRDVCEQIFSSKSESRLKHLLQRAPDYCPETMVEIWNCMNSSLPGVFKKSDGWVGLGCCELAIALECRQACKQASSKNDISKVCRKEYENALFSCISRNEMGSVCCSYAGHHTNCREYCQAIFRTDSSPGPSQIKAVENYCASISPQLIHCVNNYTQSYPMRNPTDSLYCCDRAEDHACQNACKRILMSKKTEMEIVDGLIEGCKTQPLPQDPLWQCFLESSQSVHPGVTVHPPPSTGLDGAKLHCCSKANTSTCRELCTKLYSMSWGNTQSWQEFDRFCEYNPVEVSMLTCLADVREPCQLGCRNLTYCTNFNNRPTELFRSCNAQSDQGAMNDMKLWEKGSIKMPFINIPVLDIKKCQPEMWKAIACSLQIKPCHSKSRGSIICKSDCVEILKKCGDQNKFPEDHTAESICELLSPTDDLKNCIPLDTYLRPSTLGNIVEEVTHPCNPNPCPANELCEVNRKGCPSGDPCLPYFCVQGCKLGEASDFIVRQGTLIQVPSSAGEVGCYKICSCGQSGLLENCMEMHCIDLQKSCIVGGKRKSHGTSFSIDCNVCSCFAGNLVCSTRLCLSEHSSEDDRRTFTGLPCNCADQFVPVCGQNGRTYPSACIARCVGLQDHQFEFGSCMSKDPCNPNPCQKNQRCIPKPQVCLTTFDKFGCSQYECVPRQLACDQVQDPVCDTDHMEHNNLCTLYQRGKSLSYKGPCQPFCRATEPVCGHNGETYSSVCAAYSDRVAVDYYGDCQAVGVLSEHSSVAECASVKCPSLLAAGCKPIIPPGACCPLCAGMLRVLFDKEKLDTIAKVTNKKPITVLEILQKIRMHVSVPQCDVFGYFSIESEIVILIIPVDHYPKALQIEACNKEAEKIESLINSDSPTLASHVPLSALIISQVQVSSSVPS
Method: Cells were fixed with 4% paraformaldehyde for 10 min at room temperature (RT) 48 h post transfection. For immunofluorescence staining (IF), cells were blocked in 1% BSA-PBS for 30 min before being exposed to primary antibodies for 1 h at RT. After three PBS washes, cells were incubated with secondary antibodies for 1 h at RT. For anti-V5 staining of Wnt ligands, cells were additionally washes for 10 min in PBS 0.1% Tween 20 before incubation with the secondary antibody solution. For the proximity ligation assay (PLA) (Sigma-Aldrich, St. Louis, MO), cells were blocked for 30 min at 37° C. with the Blocking solution provided by the manufacturer before being incubated with the primary antibodies for 1 h at RT. Cells were washed three times and incubated with the PLA probes anti-rabbit PLUS and anti-mouse MINUS for 1 h at 37° C. […]
Although Reck appears to be the dominant Wnt7 binding determinant, its function in Wnt signaling is known to rely on its capacity to form a complex with Gpr124 through its N-terminal CK domain (Y. Zhou, J. Nathans, Dev. Cell. 31, 248-256 (2014); B. Vanhollebeke et al., Elife. 4, 1-25 (2015)), a domain that is shown herein to be additionally implicated in Wnt7a binding. […] However, a 4-fold increase in Wnt7a-V5/HA-Reck PLAs signals was detected upon co-expression of untagged Gpr124 (FIG. 1F). […]

Reck-CK-Fc [2] = target: T1, Reck-CK-Fc; test: isothermal titration calorimetry, peptide titrated into Reck-CK-Fc, 25 °C
Reck-CK-Fc [3] = target: T1, Reck-CK-Fc; test: single-molecule force spectroscopy (AFM tip with PEG-linked pWnt7b, surface coated with Reck-CK-Fc on protein G)

B1: pWnt7b (peptide)
peptide: VEVVRASRLRQPTFLRIKQLRSYQKPMET
notes: also called synthetic Wnt7b linker peptide
Kd (Reck-CK-Fc [1]): 1.2 µM

B2: Wnt7a-V5 (ligand)
chain: LGASIICNKIPGLAPRQRAICQSRPDAIIVIGEGSQMGLDECQFQFRNGRWNCSALGERTVFGKELKVGSREAAFTYAIIAAGVAHAITAACTQGNLSDCGCDKEKQGQYHRDEGWKWGGCSADIRYGIGFAKVFVDAREIKQNARTLMNLHNNEAGRKILEENMKLECKCHGVSGSCTTKTCWTTLPQFRELGYVLKDKYNEAVHVEPVRASRNKRPTFLKIKKPLSYRKPMDTDLVYIEKSPNYCEEDPVTGSVGTQGRACNKTAPQASGCDLMCCGRGYNTHQYARVWQCNCKFHWCCYVKCNTCSERTEMYTCK
modifications: palmitoleic acid at Serine 206 (precursor numbering)
notes: Transiently expressed in HEK293 cells; also called V5-tagged Wnt7a; full-length Wnt7a; not shown: V5 tag
fold increase in PLA signal upon co-expression of untagged Gpr124 (HA-Reck): 4 fold

B3: pWnt7a (peptide)
peptide: VEPVRASRNKRPTFLKIKKPLSYRKPMDT
notes: Synthetic, purity over 90%; also called synthetic Wnt7a linker peptide; pWnt7a 238-266
Kd (Reck-CK-Fc [2]): 7 µM

B4: pWnt7b peptide on the AFM tip (peptide)
peptide: VEVVRASRLRQPTFLRIKQLRSYQKPMETC([NHS‑PEG27‑maleimide linker-AFM tip])
modifications: reading uncertain
notes: Used in single-molecule force spectroscopy; also called Pep7b
Kd (Reck-CK-Fc [3]): 5 µM
